These results are taken from IntAct's records for PubMed 31515488.

The chains are these.
B1: U3 small nucleolar RNA-associated protein 25 homolog (Homo sapiens), Q68CQ4 (parent)
chain: MGKRGSRSQSQLLNTLTKKQKKHLRDFGEEHPFYDRVSRKEAKPQICQLSESSDSSDSESDSESEPQQVSGYHRLLATLKNVSEEEEEDEEEEEEEDSIVDDAEMNDEDGGSDVSVEEEMAAESTESPENVALSADPEGKEDGEEPPGTSQTSPEEFTDAKHESLFSLETNFLEEESGDNSSLKASQDPFLQHVNKELKEKAIQAVATNPKTTHELKWPILGQLFFSSKFQKLETFKPPKDIDLKSLHLQKPLESTWTKTNSQFLSGPQKSSSPFTPLQKELFLIMNSYRDLFYPERTALKNGEEIRHVYCLHVINHILKANAQVLGNNSRRRSQKFGVGDDDDFRDQGLTRPKVLIVVPFREAALRVVQLFISLLEGDSKKKIIVSNKKRFQGEYGSDPEERPPNLKRPEDYEAVFVGNIDDHFRIGVAILQRSIRLYAPFYSSDILIASPLGLRTIIGGEGEKKRDFDFLSSIELLIIDQADIYLMQNWEHVLHLMNHMNLLPLDSHGVDFSRVRMWSLNNWSKYYRQTLLFGALQDAQINSVFNKYCVNMQGQVAVRNVPMTGSISHVLVQLPHVFQRMEAENLASVIDARFNFFVNKILPQYRDAVMSHTLIYIPSYFDFVRLRNYFKKEELNFTHICEYTQKSGVSRARHFFLQGEKQFLLFTERFHFYKRYTIKGIRNLIFYELPTYPHFYSEICNMLRATNRGEEATWTCTVLYSKYDAQRLAAVVGVERAAQMLQSNKNVHLFITGEK
B2: Cytochrome P450 4F12 (Homo sapiens), Q9HCS2 (parent)
chain: MSLLSLPWLGLRPVATSPWLLLLLVVGSWLLARILAWTYAFYNNCRRLQCFPQPPKRNWFWGHLGLITPTEEGLKNSTQMSATYSQGFTVWLGPIIPFIVLCHPDTIRSITNASAAIAPKDNLFIRFLKPWLGEGILLSGGDKWSRHRRMLTPAFHFNILKSYITIFNKSANIMLDKWQHLASEGSSRLDMFEHISLMTLDSLQKCIFSFDSHCQERPSEYIATILELSALVEKRSQHILQHMDFLYYLSHDGRRFHRACRLVHDFTDAVIRERRRTLPTQGIDDFFKDKAKSKTLDFIDVLLLSKDEDGKALSDEDIRAEADTFMFGGHDTTASGLSWVLYNLARHPEYQERCRQEVQELLKDRDPKEIEWDDLAQLPFLTMCVKESLRLHPPAPFISRCCTQDIVLPDGRVIPKGITCLIDIIGVHHNPTVWPDPEVYDPFRFDPENSKGRSPLAFIPFSAGPRNCIGQAFAMAEMKVVLALMLLHFRFLPDHTEPRRKLELIMRAEGGLWLRVEPLNVSLQ
partner: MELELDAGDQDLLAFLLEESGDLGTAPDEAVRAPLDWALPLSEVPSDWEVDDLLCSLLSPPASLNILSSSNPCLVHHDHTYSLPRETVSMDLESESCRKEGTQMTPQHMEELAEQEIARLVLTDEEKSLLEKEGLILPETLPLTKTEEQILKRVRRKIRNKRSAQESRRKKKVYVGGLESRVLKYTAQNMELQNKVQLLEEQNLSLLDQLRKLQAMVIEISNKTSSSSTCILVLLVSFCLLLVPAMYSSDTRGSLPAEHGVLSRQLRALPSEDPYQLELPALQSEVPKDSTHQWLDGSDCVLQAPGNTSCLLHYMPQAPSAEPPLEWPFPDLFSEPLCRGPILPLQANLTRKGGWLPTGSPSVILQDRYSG
B3: Segment polarity protein dishevelled homolog DVL-2 (Homo sapiens), O14641 (parent)
chain: MAGSSTGGGGVGETKVIYHLDEEETPYLVKIPVPAERITLGDFKSVLQRPAGAKYFFKSMDQDFGVVKEEISDDNARLPCFNGRVVSWLVSSDNPQPEMAPPVHEPRAELAPPAPPLPPLPPERTSGIGDSRPPSFHPNVSSSHENLEPETETESVVSLRRERPRRRDSSEHGAGGHRTGGPSRLERHLAGYESSSTLMTSELESTSLGDSDEEDTMSRFSSSTEQSSASRLLKRHRRRRKQRPPRLERTSSFSSVTDSTMSLNIITVTLNMEKYNFLGISIVGQSNERGDGGIYIGSIMKGGAVAADGRIEPGDMLLQVNDMNFENMSNDDAVRVLRDIVHKPGPIVLTVAKCWDPSPQAYFTLPRNEPIQPIDPAAWVSHSAALTGTFPAYPGSSSMSTITSGSSLPDGCEGRGLSVHTDMASVTKAMAAPESGLEVRDRMWLKITIPNAFLGSDVVDWLYHHVEGFPERREARKYASGLLKAGLIRHTVNKITFSEQCYYVFGDLSGGCESYLVNLSLNDNDGSSGASDQDTLAPLPGATPWPLLPTFSYQYPAPHPYSPQPPPYHELSSYTYGGGSASSQHSEGSRSSGSTRSDGGAGRTGRPEERAPESKSGSGSESEPSSRGGSLRRGGEASGTSDGGPPPSRGSTGGAPNLRAHPGLHPYGPPPGMALPYNPMMVVMMPPPPPPVPPAVQPPGAPPVRDLGSVPPELTASRQSFHMAMGNPSEFFVDVM
B4: 2'-5'-oligoadenylate synthase 1 (Homo sapiens), P00973 (parent)
chain: MMDLRNTPAKSLDKFIEDYLLPDTCFRMQINHAIDIICGFLKERCFRGSSYPVCVSKVVKGGSSGKGTTLRGRSDADLVVFLSPLTTFQDQLNRRGEFIQEIRRQLEACQRERAFSVKFEVQAPRWGNPRALSFVLSSLQLGEGVEFDVLPAFDALGQLTGGYKPNPQIYVKLIEECTDLQKEGEFSTCFTELQRDFLKQRPTKLKSLIRLVKHWYQNCKKKLGKLPPQYALELLTVYAWERGSMKTHFNTAQGFRTVLELVINYQQLCIYWTKYYDFKNPIIEKYLRRQLTKPRPVILDPADPTGNLGGGDPKGWRQLAQEAEAWLNYPCFKNWDGSPVSSWILLAESNSADDETDDPRRYQKYGYIGTHEYPHFSHRPSTLQAASTPQAEEDWTCTIL
partner: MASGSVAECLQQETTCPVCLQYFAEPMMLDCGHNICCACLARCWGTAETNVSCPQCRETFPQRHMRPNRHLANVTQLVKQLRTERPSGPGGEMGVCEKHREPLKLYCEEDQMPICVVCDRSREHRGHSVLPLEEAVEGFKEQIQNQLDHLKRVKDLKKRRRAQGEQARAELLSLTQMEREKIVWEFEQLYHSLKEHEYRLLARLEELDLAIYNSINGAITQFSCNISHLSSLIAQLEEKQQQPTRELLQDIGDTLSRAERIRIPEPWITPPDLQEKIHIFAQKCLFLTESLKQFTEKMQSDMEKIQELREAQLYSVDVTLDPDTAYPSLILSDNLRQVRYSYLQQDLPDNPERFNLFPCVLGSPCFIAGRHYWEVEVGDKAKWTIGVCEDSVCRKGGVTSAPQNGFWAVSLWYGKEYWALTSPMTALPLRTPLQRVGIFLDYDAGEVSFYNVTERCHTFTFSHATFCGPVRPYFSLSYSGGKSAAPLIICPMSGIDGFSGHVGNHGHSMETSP
B5: Forkhead box protein P3 (Homo sapiens), Q9BZS1 (parent)
chain: MPNPRPGKPSAPSLALGPSPGASPSWRAAPKASDLLGARGPGGTFQGRDLRGGAHASSSSLNPMPPSQLQLPTLPLVMVAPSGARLGPLPHLQALLQDRPHFMHQLSTVDAHARTPVLQVHPLESPAMISLTPPTTATGVFSLKARPGLPPGINVASLEWVSREPALLCTFPNPSAPRKDSTLSAVPQSSYPLLANGVCKWPGCEKVFEEPEDFLKHCQADHLLDEKGRAQCLLQREMVQSLEQQLVLEKEKLSAMQAHLAGKMALTKASSVASSDKGSCCIVAAGSQGPVVPAWSGPREAPDSLFAVRRHLWGSHGNSTFPEFLHNMDYFKFHNMRPPFTYATLIRWAILEAPEKQRTLNEIYHWFTRMFAFFRNHPATWKNAIRHNLSLHKCFVRVESEKGAVWTVDELEFRKKRSQRPSRCSNPTPGP

In one experiment the parent is B1. The note with it: with rufy1_human RUFY1, Q96T51.
rufy1_human RUFY1, Q96T51, sequence (Q96T51 whole entry): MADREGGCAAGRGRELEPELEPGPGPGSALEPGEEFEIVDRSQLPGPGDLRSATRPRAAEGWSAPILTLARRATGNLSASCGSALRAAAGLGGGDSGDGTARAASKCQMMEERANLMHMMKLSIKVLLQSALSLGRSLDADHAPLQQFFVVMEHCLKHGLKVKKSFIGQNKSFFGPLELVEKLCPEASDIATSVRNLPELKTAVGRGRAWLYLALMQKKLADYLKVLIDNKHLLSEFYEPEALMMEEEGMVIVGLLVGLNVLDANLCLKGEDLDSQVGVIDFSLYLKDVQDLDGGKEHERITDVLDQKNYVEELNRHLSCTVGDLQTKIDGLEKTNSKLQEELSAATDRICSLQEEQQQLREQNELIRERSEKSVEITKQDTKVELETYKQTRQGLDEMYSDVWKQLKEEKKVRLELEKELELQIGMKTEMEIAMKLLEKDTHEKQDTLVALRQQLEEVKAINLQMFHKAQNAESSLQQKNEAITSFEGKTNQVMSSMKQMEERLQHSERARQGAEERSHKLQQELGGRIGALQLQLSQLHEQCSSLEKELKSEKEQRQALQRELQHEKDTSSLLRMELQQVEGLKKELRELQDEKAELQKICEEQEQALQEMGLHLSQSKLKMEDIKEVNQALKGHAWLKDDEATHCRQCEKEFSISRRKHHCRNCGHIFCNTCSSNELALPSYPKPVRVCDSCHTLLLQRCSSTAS
For the variant Q67E, the “effect of a mutation on the interaction” value was “with no effect”.

In the case of G111D, the “effect of a mutation on the interaction” value is “with no effect”.

In the next experiment the parent is B1. The note with it: with cep70_human CEP70, Q8NHQ1.
cep70_human CEP70, Q8NHQ1, sequence (Q8NHQ1 whole entry): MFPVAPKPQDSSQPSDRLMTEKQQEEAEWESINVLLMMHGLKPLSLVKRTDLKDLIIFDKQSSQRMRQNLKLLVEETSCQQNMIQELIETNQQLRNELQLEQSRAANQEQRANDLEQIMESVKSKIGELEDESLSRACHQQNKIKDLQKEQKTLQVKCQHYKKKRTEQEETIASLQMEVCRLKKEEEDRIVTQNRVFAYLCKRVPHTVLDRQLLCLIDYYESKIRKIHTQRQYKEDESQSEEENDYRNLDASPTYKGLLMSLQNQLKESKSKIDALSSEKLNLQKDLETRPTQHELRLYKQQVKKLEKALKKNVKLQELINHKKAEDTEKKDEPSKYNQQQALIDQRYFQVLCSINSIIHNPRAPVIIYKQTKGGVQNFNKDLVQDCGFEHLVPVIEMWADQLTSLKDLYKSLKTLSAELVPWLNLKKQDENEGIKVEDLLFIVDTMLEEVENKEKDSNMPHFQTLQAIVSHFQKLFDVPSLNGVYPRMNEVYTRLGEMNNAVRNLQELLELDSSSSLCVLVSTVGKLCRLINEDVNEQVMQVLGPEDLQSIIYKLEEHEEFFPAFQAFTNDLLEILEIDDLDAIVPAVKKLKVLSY
As to Q67E, the “effect of a mutation on the interaction” value is “with no effect”.

As to G111D, the “effect of a mutation on the interaction” value was “with no effect”.

In another experiment the parent is B1. As to conditions: with trim1_human MID2, Q9UJV3.
trim1_human MID2, Q9UJV3, sequence (Q9UJV3 whole entry): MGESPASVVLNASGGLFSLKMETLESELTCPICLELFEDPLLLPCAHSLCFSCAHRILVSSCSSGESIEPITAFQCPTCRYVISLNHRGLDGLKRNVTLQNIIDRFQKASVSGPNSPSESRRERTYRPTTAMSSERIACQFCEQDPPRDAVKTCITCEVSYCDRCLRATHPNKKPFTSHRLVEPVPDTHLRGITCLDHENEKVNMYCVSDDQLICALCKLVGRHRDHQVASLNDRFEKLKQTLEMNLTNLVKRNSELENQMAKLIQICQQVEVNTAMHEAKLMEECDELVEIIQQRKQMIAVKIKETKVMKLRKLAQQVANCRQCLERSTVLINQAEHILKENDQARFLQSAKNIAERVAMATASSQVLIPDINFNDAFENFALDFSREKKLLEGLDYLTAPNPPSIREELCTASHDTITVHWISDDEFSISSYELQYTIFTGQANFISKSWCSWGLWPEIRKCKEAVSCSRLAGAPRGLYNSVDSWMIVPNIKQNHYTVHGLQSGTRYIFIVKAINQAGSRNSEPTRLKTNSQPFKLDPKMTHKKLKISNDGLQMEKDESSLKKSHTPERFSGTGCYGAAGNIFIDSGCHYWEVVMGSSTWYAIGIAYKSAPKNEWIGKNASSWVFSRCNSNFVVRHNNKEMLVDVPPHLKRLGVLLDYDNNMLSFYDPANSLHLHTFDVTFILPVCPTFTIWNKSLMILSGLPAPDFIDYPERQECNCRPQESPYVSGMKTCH
Q67E: the “effect of a mutation on the interaction” value is “with no effect”.

On to G111D, for which the “effect of a mutation on the interaction” value is listed as “with no effect”.

Another experiment covers variants of B2. The note with it: with creb3_human CREB3, O43889.
Take R254W: the “effect of a mutation on the interaction” value is on record as “disrupting interaction strength”.

Regarding R272Q, the “effect of a mutation on the interaction” value is on record as “with no effect”.

The variants in another experiment derive from B3. The note with it: with traf2_human TRAF2, Q12933.
traf2_human TRAF2, Q12933, sequence (Q12933 whole entry): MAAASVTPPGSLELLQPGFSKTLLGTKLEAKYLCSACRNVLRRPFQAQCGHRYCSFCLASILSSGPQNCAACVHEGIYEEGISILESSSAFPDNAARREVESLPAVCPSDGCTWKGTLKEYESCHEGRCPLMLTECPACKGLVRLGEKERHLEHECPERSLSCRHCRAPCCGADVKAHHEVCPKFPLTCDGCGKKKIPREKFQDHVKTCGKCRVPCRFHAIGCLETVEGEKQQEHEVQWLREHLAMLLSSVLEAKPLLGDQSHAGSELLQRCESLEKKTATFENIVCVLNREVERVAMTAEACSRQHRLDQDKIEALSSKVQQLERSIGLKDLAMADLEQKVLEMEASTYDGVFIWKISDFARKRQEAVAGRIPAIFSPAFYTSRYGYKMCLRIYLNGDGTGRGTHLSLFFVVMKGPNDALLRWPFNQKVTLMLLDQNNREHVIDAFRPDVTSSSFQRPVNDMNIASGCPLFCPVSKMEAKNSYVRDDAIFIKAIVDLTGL
Regarding R415Q, the “effect of a mutation on the interaction” value is “with no effect”.

In a further experiment the parent is B3. As to conditions: with ap2m1_human AP2M1, Q96CW1.
ap2m1_human AP2M1, Q96CW1, sequence (Q96CW1 whole entry): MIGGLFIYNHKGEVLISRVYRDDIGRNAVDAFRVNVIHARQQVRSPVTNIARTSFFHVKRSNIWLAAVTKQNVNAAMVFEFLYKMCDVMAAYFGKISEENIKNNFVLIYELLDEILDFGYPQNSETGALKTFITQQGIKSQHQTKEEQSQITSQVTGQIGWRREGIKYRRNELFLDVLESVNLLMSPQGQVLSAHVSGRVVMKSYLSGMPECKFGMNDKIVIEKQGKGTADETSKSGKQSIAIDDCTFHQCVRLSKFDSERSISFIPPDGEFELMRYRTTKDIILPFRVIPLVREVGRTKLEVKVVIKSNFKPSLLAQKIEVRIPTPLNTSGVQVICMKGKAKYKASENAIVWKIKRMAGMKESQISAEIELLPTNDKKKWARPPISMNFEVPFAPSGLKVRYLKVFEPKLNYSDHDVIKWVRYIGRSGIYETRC
As to R415Q, the “effect of a mutation on the interaction” value is “with no effect”.

Variants of B3 are the subject of a further experiment. As to conditions: with thap1_human THAP1, Q9NVV9.
thap1_human THAP1, Q9NVV9, sequence (Q9NVV9 whole entry): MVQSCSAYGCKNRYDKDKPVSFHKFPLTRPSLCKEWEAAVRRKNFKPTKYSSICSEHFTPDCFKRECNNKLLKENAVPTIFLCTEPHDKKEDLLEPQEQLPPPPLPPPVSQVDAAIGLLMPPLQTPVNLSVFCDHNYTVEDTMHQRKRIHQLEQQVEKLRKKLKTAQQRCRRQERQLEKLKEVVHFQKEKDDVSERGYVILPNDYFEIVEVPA
Consider A53V, for which the “effect of a mutation on the interaction” value is given as “with no effect”.

For T535I, the “effect of a mutation on the interaction” value is “with no effect”.

Another experiment covers variants of B3. As to conditions: with kc1e_human CSNK1E.
As to A53V, the “effect of a mutation on the interaction” value is reported as “with no effect”.

With T535I, the “effect of a mutation on the interaction” value is “with no effect”.

The variants in a further experiment derive from B4. The note with it: with tri27_human TRIM27, P14373.
Regarding MMDLRNTPAKSLDKFIEDYLLPDTCFRMQINHAIDIICGFLKERCFRGSSYPVCVSKVVKGGSSGKGTTLRGRSDADLVVFLSPLTTFQDQLNRRGEFIQEIRRQLEACQRERAFSVKFEVQAPRWGNPRALSFVLSSLQLGEGVEFDVLPAFDALGQLTGGYKPNPQIYVKLIEECTDLQKEGEFSTCFTELQRDFLKQRPTKLKSLIRLVKHWYQNCKKKLGKLPPQYALELLTVYAWERGSMKTHFNTAQGFRTVLELVINYQQLCIYWTKYYDFKNPIIEKYLRRQLTKPRPVILDPADPTGNLGGGDPKGWRQLAQEAEAWPNYPCFKNWDGSPVSSWILLAESNSADDETDDPRRYQKYGYIGTHEYPHFSHRPSTLQAASTPQAEEDWTCTIL [L327P], the “effect of a mutation on the interaction” value was “disrupting interaction strength”.

In the next experiment the parent is B5. As to conditions: with pr20e_human PRR20E.
Turning to MPNPRPGKPSAPSLALGPSPGASPSWRAAPKASDLLGARGPGGTFQGRDLRGGAHASSCSLNPMPPSQLQLPTLPLVMVAPSGARLGPLPHLQALLQDRPHFMHQLSTVDAHARTPVLQVHPLESPAMISLTPPTTATGVFSLKARPGLPPGINVASLEWVSREPALLCTFPNPSAPRKDSTLSAVPQSSYPLLANGVCKWPGCEKVFEEPEDFLKHCQADHLLDEKGRAQCLLQREMVQSLEQQLVLEKEKLSAMQAHLAGKMALTKASSVASSDKGSCCIVAAGSQGPVVPAWSGPREAPDSLFAVRRHLWGSHGNSTFPEFLHNMDYFKFHNMRPPFTYATLIRWAILEAPEKQRTLNEIYHWFTRMFAFFRNHPATWKNAIRHNLSLHKCFVRVESEKGAVWTVDELEFRKKRSQRPSRCSNPTPGP [S59C], the “effect of a mutation on the interaction” value was “with no effect”.

The next experiment covers variants of B5. As to conditions: with rbpms_human RBPMS.
Regarding MPNPRPGKPSAPSLALGPSPGASPSWRAAPKASDLLGARGPGGTFQGRDLRGGAHASSCSLNPMPPSQLQLPTLPLVMVAPSGARLGPLPHLQALLQDRPHFMHQLSTVDAHARTPVLQVHPLESPAMISLTPPTTATGVFSLKARPGLPPGINVASLEWVSREPALLCTFPNPSAPRKDSTLSAVPQSSYPLLANGVCKWPGCEKVFEEPEDFLKHCQADHLLDEKGRAQCLLQREMVQSLEQQLVLEKEKLSAMQAHLAGKMALTKASSVASSDKGSCCIVAAGSQGPVVPAWSGPREAPDSLFAVRRHLWGSHGNSTFPEFLHNMDYFKFHNMRPPFTYATLIRWAILEAPEKQRTLNEIYHWFTRMFAFFRNHPATWKNAIRHNLSLHKCFVRVESEKGAVWTVDELEFRKKRSQRPSRCSNPTPGP [S59C], the “effect of a mutation on the interaction” value is “with no effect”.
